Measured values published in the nanobody polyreactivity screen of Harvey et al. (2022).

experiment: yeast display, Sf9 membrane polyspecificity reagent, FACS + sequencing; frameworks hold sequencing errors
Procedure, shortened: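 A synthetic nanobody library was expressed on Saccharomyces cerevisiae BJ5465 by galactose induction for 36–48 hours. The library was stained for 1 hour at 4 °C with 10% biotinylated, detergent-solubilized Sf9 membrane reagent and enriched with streptavidin microbeads before FACS. Low and high (top ~1%) gates were set on anti-HA fluorescence for expression and streptavidin fluorescence for reagent binding, and each polyreactivity label reflects the gate of origin.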

Which “polyreactivity (PSR sort gate)” value does the source give for “QVQLVESGGGLVQAGGSLRLSCAASGSTFWAYALGWYRHAPGKERELVAAITTGGGRTFYADSVMGRFTISRDNGKNTVYLQLNSLIPEDTAVYYCGAVSQSYRMYYWGQGTQVTVSS” here?
The value was “low polyreactivity”.

Which “polyreactivity (PSR sort gate)” value does the source give for “QVQLVESGGGLVQAGGSLRLSCAASGSTFWAYVMGWYRQAPGKERELVAAISKSGVRTHYADSVKGRFTISRDNAKNTVYLQMNSLKPEDNAVYYCAAGGVGNLDDYWGQGTQVTVSS” here?
The value was “high polyreactivity”.

Which “polyreactivity (PSR sort gate)” value does the source give for “QVQLVESGGGLVQAGGSLRLSCAASGSTFWDYDMGWYRQAPGKERELVASIRNGGSTNYADSVKGRFTISRDNAKNTVYLQMNSLKPEDTAVYYCAADRQPVYPSLGVYWDYGHDYWGQGTQVTVSS” here?
The value was “low polyreactivity”.

With “QVQLVESGGGLVQAGGSLRLSCAASGSTFWFNAMGWYRQAPGKERELVAAISGRGGNTYYADSVKGRFTISRVNAKNTVYLQMYSLKPEDTAVYYCNAVYLYAYRVRYYYGRYDYWGQGTQVTVSS” as the sequence, how does the “polyreactivity (PSR sort gate)” value read?
The value was “high polyreactivity”.

For “QVQLVESGGGLVQAGGSLRLSCAASGSTFWFNAMGWYRQAPGKERELVAAITYRGASTNYADSVKGRFTISRDNAKNTVYLQMNSLKPEDTAVYYCATRPTWRPVPDSDVSTYGYWGQGTQVTVSS”, which “polyreactivity (PSR sort gate)” value is on record?
Its value is “low polyreactivity”.

For “QVQLVESGGGLVQAGGSLRLSCAASGSTFWFNDMGWYRQAPGKEREFVAAISSIGGSTYYADSVKGRFTISRDNAKNTVYLQMNSLKPEDTAVYYCAADRLQYYNPYDYWGQGTQVTVSS”, which “polyreactivity (PSR sort gate)” value is on record?
Its value is “low polyreactivity”.

For “QVQLVESGGGLVQAGGSLRLSCAASGSTFWFYAMGWYRQAPGKERELDAAISNGDSTNYADSVKGRFTISRDNAKNTVYLQMNSLKPEDTAVYYCAADQVYGIGYEYWGQGTQVTVSS”, which “polyreactivity (PSR sort gate)” value is on record?
The value was “low polyreactivity”.

Which “polyreactivity (PSR sort gate)” value does the source give for “QVQLVESGGGLVQAGGSLRLSCAASGSTFWFYAMGWYRQSPGKERELVAVISNSGSTYYADSVKGRFTISRDNAKNTVYLQMNSLKPEDTAVYYCNKDGGGDSYWYDYWGQGTQVTVSS” here?
The value was “low polyreactivity”.

Which “polyreactivity (PSR sort gate)” value does the source give for “QVQLVESGGGLVQAGGSLRLSCAASGSTFWGYAMGWSRQAPGKERELVASITTSDSTYYADSVKGRFTISRDNAKNTVYLQMNSLKPEDSAVYYCAADETWPEYDYWGQGSQVTVSS” here?
The value was “low polyreactivity”.

Which “polyreactivity (PSR sort gate)” value does the source give for “QVQLVESGGGLVQAGGSLRLSCAASGSTFWGYTMGWYRQAPGKERELVAAISTIGGSTYYADSVKGRFTISRDNAKNTVYLQMNSLKPEDTAVYYCAAEVYTFSGTSWVKDGGYWGQGTQVTVSS” here?
The value was “low polyreactivity”.

For “QVQLVESGGGLVQAGGSLRLSCAASGSTFWHNAMGWYRQAPGKERELVAAISYSGGNTNYADSVKGRFTISRDNAKNTVYLQMNSLKPEDTAVYYCNAPDVFPQAIYDYWGQGTQVTVSS”, which “polyreactivity (PSR sort gate)” value is on record?
The value was “high polyreactivity”.

Which “polyreactivity (PSR sort gate)” value does the source give for “QVQLVESGGGLVQAGGSLRLSCAASGSTFWHYAMGWYRQAPGKERELVASISGRGTSTYYADSVKGRFTLSRDNAKNTVYLQMNSLKPEDTAVYYCAATKWYRAFDYWGQGTQVTVSS” here?
The value was “low polyreactivity”.

Which “polyreactivity (PSR sort gate)” value does the source give for “QVQLVESGGGLVQAGGSLRLSCAASGSTFWIYAMGWYRQAPGKERELVAAINWSGGNTYYADSVKGRFTISRDNAKNTVYLQMNSLKPEDTAVYYCAAAFYIYGVEGDYWGQGTQVTVSS” here?
Its value is “low polyreactivity”.

For “QVQLVESGGGLVQAGGSLRLSCAASGSTFWKYAMGWYRQAPGKERELVASIRSGGSTYYADSVKGRFTISRDNAKNTVYLQMNSLKPEDTAVYYCAAVTHGRYDWGQGTQVTVSS”, which “polyreactivity (PSR sort gate)” value is on record?
The value was “high polyreactivity”.

Which “polyreactivity (PSR sort gate)” value does the source give for “QVQLVESGGGLVQAGGSLRLSCAASGSTFWPYAMGWYRQAPGKERELVAAIRVIGGSKYYADSVKGRFTISRDNAKNTVYLQMNSLKPEDTAVYYCNAYRPGGARFYARYRYDYWGQGTQVTVSS” here?
Its value is “low polyreactivity”.

With “QVQLVESGGGLVQAGGSLRLSCAASGSTFWPYTMGWYRPATGKESELVAAISLSGGSTYYADSVKGRFTISRDNAKNSVYLQMNSLKPEDTAVYYCAAEGGYQNWHYLYEYWGQGTQVTVSS” as the sequence, how does the “polyreactivity (PSR sort gate)” value read?
Its value is “low polyreactivity”.

Which “polyreactivity (PSR sort gate)” value does the source give for “QVQLVESGGGLVQAGGSLRLSCAASGSTFWSYAMGWYRPAPGKERELVAAITSGGRTYYADSVKGRFTISRDNAKNTVYLQMNSLKPEDTAVYYCAAEGSVGLYGLIMHYWGQGTQVTVSS” here?
Its value is “high polyreactivity”.

With “QVQLVESGGGLVQAGGSLRLSCAASGSTFWSYAMGWYRQAPGKERELVASISRRGGSTSYADSVKGRFTISRDNAKNTVYLQMNSLKPEDTAVYYCAARLLRTTKPRSGYGYWGQGTQVTVSS” as the sequence, how does the “polyreactivity (PSR sort gate)” value read?
The value was “high polyreactivity”.

Which “polyreactivity (PSR sort gate)” value does the source give for “QVQLVESGGGLVQAGGSLRLSCAASGSTFWTNAMGWYRQAPGKERELVAAISRSGGSTYYADSVKGRFTISRDNAKNTVYLQMNSLKPEDTAVYYCNAVLPYYRGSHYDYWGQGTQVTVSS” here?
The value was “high polyreactivity”.

For “QVQLVESGGGLVQAGGSLRLSCAASGSTFWTNDMGWYRQAPGKERELVAAISQSAGDTYYADSVKGRFTISRDNAKNTVYLQMNSLKPEDTAVSYCAADLVFYPFTWDGYYYWGQGTQVTVSS”, which “polyreactivity (PSR sort gate)” value is on record?
Its value is “low polyreactivity”.

For “QVQLVESGGGLVQAGGSLRLSCAASGSTFWVNAMGWYRQAPGKERELVAAISERGGRTYYADSVKGRFTISRDNAKNTVYLQMNSLKPEDTAVYYCNRVTRSNVDYWGQGTQVTVSS”, which “polyreactivity (PSR sort gate)” value is on record?
Its value is “high polyreactivity”.
